Measured values as given in patent publication US20250115663A1 (CELLDEX THERAPEUTICS, published 2025).

Experiments:
[1] = molecular target: T1, kappa-sCD40-Flag fusion protein, fragment amino acids 1-94 (human, UniProt P25942 21-114); assay: ELISA, kappa-sCD40-Flag fusion (~2 ug/ml) captured on anti-Flag, anti-human IgG Fc-HRP
T1 construct: also called sCD40aa 1-94; not shown: N-terminal human kappa light chain; C-terminal Flag tag
Description: (§1) containing the sCD40 fusion proteins were captured to microtiter plates that were pre-coated with 5 μg/ml mouse anti-Flag antibody (Sigma) in PBS and blocked with 5% bovine serum albumin in PBS. Following incubation with the CD40 antibody, the microplates were washed with PBS/Tween, and incubated with a goat anti-human IgG Fc polyclonal reagent conjugated to horseradish peroxidase. After washing, the plates were developed with HRP substrate, and analyzed at OD 450-650 using a microtiter plate reader. An ELISA with a goat anti-human IgG Fab2-HRP to measure kappa chain binding was carried out in parallel to validate the sCD40 fusion protein expression from different transfections.

[2] = molecular target: T2, kappa-sCD40(1-94)-Flag mutant fragment A (multiple mutations of residues 1-5) (human, UniProt P25942 26-114); assay: as above
T2 construct: The text says only multiple mutations of residues 1-5 (human to mouse differences); that mutant A carries exactly these is inferred; also called A (1-5); not shown: N-terminal human kappa light chain; C-terminal Flag tag
Description: as §1

[3] = molecular target: T3, kappa-sCD40(1-94)-Flag mutant fragment D (multiple mutations of residues 33-36) (human, UniProt P25942 21-114); assay: as above
T3 construct: The text says only multiple mutations of residues 33-36 (human to mouse differences); that mutant D carries exactly these is inferred; also called D (33-36); not shown: N-terminal human kappa light chain; C-terminal Flag tag
T3 chain: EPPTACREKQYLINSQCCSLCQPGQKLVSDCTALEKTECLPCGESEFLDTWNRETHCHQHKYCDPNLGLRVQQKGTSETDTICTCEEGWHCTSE
Description: as §1

[4] = molecular target: T4, kappa-sCD40(1-94)-Flag point mutant E1G (human, UniProt P25942 22-114); assay: as above
T4 construct: not shown: N-terminal human kappa light chain; C-terminal Flag tag
Description: as §1

[5] = molecular target: T5, kappa-sCD40(1-94)-Flag point mutant P3S (human, UniProt P25942 21-114); assay: as above
T5 construct: not shown: N-terminal human kappa light chain; C-terminal Flag tag
T5 chain: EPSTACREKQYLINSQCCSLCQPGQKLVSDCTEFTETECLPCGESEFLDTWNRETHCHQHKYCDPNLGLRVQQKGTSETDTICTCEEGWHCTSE
Description: as §1

[6] = molecular target: T6, kappa-sCD40(1-94)-Flag point mutant T4V (human, UniProt P25942 21-114); assay: as above
T6 construct: not shown: N-terminal human kappa light chain; C-terminal Flag tag
T6 chain: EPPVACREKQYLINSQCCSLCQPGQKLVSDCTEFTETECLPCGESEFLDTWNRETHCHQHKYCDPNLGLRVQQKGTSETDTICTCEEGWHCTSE
Description: as §1

[7] = molecular target: T7, kappa-sCD40(1-94)-Flag point mutant A5T (human, UniProt P25942 21-114); assay: as above
T7 construct: not shown: N-terminal human kappa light chain; C-terminal Flag tag
T7 chain: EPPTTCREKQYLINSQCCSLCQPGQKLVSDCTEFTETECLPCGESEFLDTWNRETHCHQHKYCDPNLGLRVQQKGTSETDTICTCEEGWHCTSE
Description: as §1

[8] = molecular target: T8, kappa-sCD40(1-94)-Flag point mutant E33A (human, UniProt P25942 21-114); assay: as above
T8 construct: not shown: N-terminal human kappa light chain; C-terminal Flag tag
T8 chain: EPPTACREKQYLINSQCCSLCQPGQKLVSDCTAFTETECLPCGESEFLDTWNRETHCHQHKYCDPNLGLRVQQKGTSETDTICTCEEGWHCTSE
Description: as §1

[9] = molecular target: T9, kappa-sCD40(1-94)-Flag point mutant F34L (human, UniProt P25942 21-114); assay: as above
T9 construct: not shown: N-terminal human kappa light chain; C-terminal Flag tag
T9 chain: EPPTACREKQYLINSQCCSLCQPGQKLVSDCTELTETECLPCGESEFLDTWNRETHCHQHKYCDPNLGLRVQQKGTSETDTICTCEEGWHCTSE
Description: as §1

[10] = molecular target: T10, kappa-sCD40(1-94)-Flag point mutant T35E (human, UniProt P25942 21-114); assay: as above
T10 construct: not shown: N-terminal human kappa light chain; C-terminal Flag tag
T10 chain: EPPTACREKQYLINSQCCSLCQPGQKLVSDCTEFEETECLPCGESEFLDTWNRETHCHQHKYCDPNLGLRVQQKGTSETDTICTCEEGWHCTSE
Description: as §1

[11] = molecular target: T4, kappa-sCD40(1-94)-Flag point mutant E1G; assay: ELISA, mutated kappa-sCD40(1-94)-Flag captured on anti-Flag antibody, detection anti-human IgG Fc-HRP; the concentration axis is taken as that of 3C3
Description: as §1, with “1 μg/ml of purified kappa-sCD40-Flag fusion proteins or CHO cell supernatants containing” for “containing”

[12] = molecular target: T8, kappa-sCD40(1-94)-Flag point mutant E33A; assay: as above
Description: as §1, with “1 μg/ml of purified kappa-sCD40-Flag fusion proteins or CHO cell supernatants containing” for “containing”

Average OD [1]: 2.16 OD 450-650 | Average OD [2]: 0.167 OD 450-650 | Average OD [3]: 0.124 OD 450-650 | Average OD [4]: 1.97 OD 450-650 | Average OD [5]: 2.01 OD 450-650 | Average OD [6]: 2.15 OD 450-650 | Average OD [7]: 1.13 OD 450-650 | Average OD [8]: 1.62 OD 450-650 | Average OD [9]: 1.88 OD 450-650 | Average OD [10]: 2.07 OD 450-650 | EC50 (read off the curve) [11]: ~0.04 µg/mL | EC50 (read off the curve) [12]: ~0.2 µg/mL
B1: anti-CD40 human monoclonal antibody 3C3 (antibody, human IgG2, kappa, V domains shown)
VH: QVQLVESGGGVVQPGRSLRLSCAGSGFIFSRYGMYWVRQAPGKGLEWVAVIWYDGSYKYYADSVKGRFTISRDNSKNTLYLQMNSLRAEDTAVYYCARESPWYYFDYWGQGTLVTVSS
VL: DIQMTQSPSSLSASVGDRVTITCRASQGISNYLAWYQQKPGKVPKLLIYAASTLQSGVPSRFSGSGSGTDFTLTISSLQPEDVATYYCQKYKSAPFTFGPGTKVDIKR
notes: Human IgG2, C-terminal lysine removed; also called anti-CD40 mAb 3C3; CD40 antibody 3C3
